Measurements reported in the supplement of paper PMC9233669.
Fewer inactive variants are shown than the library holds.

Tests used:
biotinyl-Phe-oxazolone = assay: self-aminoacylation, catalytic enhancement (BFO) (fold over background); higher = more active; k-Seq, kA / k0A0; sequences stand for … in GGGAAUGGAUCCACAUCUACGAAUUC…UUCACUGCAGACUUGACGAAGCUG
Summary of the method: (§1)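 Each biotinyl-aminoacyl-oxazolone, at 2–1250 μM, was incubated with mutagenized RNA pools (0.43 μM) carrying a 21-nt variable region. The 50 μL reactions contained HEPES/NaCl/KCl/MgCl2/CaCl2 buffer with 5% acetonitrile at pH 6.9–7.0 and ran for 90 minutes at room temperature. After streptavidin capture, RNA was measured by qPCR in triplicate and by Illumina sequencing, and catalytic enhancement was calculated as median kA over the uncatalyzed rate from a pseudo-first-order fit of per-sequence fraction reacted.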

biotinyl-Ile-oxazolone = assay: self-aminoacylation, catalytic enhancement (BIO) (fold over background); higher = more active; k-Seq, kA / k0A0; sequences stand for … in GGGAAUGGAUCCACAUCUACGAAUUC…UUCACUGCAGACUUGACGAAGCUG
Summary of the method: as §1

biotinyl-Met-oxazolone = assay: self-aminoacylation, catalytic enhancement (BMO) (fold over background); higher = more active; k-Seq, kA / k0A0; sequences stand for … in GGGAAUGGAUCCACAUCUACGAAUUC…UUCACUGCAGACUUGACGAAGCUG
Summary of the method: as §1

biotinyl-Val-oxazolone = assay: self-aminoacylation, catalytic enhancement (BVO) (fold over background); higher = more active; k-Seq, kA / k0A0; sequences stand for … in GGGAAUGGAUCCACAUCUACGAAUUC…UUCACUGCAGACUUGACGAAGCUG
Summary of the method: as §1

biotinyl-Leu-oxazolone = assay: self-aminoacylation, catalytic enhancement (BLO) (fold over background); higher = more active; k-Seq, kA / k0A0; sequences stand for … in GGGAAUGGAUCCACAUCUACGAAUUC…UUCACUGCAGACUUGACGAAGCUG
Summary of the method: as §1

biotinyl-Trp-oxazolone = assay: self-aminoacylation, catalytic enhancement (BWO) (fold over background); higher = more active; k-Seq, kA / k0A0; sequences stand for … in GGGAAUGGAUCCACAUCUACGAAUUC…UUCACUGCAGACUUGACGAAGCUG
Summary of the method: as §1

## AUUCACCUAAGUCAUCGGCUG [Fam2.2 aminoacylation ribozyme variant]
biotinyl-Phe-oxazolone
  self-aminoacylation: 5.86
biotinyl-Ile-oxazolone
  self-aminoacylation: 1.52
biotinyl-Met-oxazolone
  self-aminoacylation: 1.55
biotinyl-Val-oxazolone
  self-aminoacylation: 1.58
biotinyl-Leu-oxazolone
  self-aminoacylation: 1.63
biotinyl-Trp-oxazolone
  self-aminoacylation: 0.999

## CCACACUUCACGUAAUCGGUC [Fam1B.1 aminoacylation ribozyme variant]
biotinyl-Phe-oxazolone
  self-aminoacylation: 0.967
biotinyl-Ile-oxazolone
  self-aminoacylation: 0.892
biotinyl-Met-oxazolone
  self-aminoacylation: 0.822
biotinyl-Val-oxazolone
  self-aminoacylation: 0.914
biotinyl-Leu-oxazolone
  self-aminoacylation: 0.733
biotinyl-Trp-oxazolone
  self-aminoacylation: 0.591

## AAGUUUGCUAAUAGUGGGAAG [Fam3.1 aminoacylation ribozyme variant]
biotinyl-Phe-oxazolone
  self-aminoacylation: 1.48
biotinyl-Ile-oxazolone
  self-aminoacylation: 0.841
biotinyl-Met-oxazolone
  self-aminoacylation: 0.971
biotinyl-Val-oxazolone
  self-aminoacylation: 1.03
biotinyl-Leu-oxazolone
  self-aminoacylation: 0.876
biotinyl-Trp-oxazolone
  self-aminoacylation: 0.598

## AAGUUUGCUAGUACUCGCAAG [Fam3.1 aminoacylation ribozyme variant]
biotinyl-Phe-oxazolone
  self-aminoacylation: 0.836
biotinyl-Ile-oxazolone
  self-aminoacylation: 0.894
biotinyl-Met-oxazolone
  self-aminoacylation: 0.907
biotinyl-Val-oxazolone
  self-aminoacylation: 0.878
biotinyl-Leu-oxazolone
  self-aminoacylation: 0.773
biotinyl-Trp-oxazolone
  self-aminoacylation: 0.574

## CCACACUGCAAGCAAUCGAUC [Fam1B.1 aminoacylation ribozyme variant]
biotinyl-Phe-oxazolone
  self-aminoacylation: 1.39
biotinyl-Ile-oxazolone
  self-aminoacylation: 0.9
biotinyl-Met-oxazolone
  self-aminoacylation: 0.56
biotinyl-Val-oxazolone
  self-aminoacylation: 1.07
biotinyl-Leu-oxazolone
  self-aminoacylation: 0.739
biotinyl-Trp-oxazolone
  self-aminoacylation: 0.727

## CCACACUUCAAUCAAUUGGUC [Fam1B.1 aminoacylation ribozyme variant]
biotinyl-Phe-oxazolone
  self-aminoacylation: 0.876
biotinyl-Ile-oxazolone
  self-aminoacylation: 0.598
biotinyl-Met-oxazolone
  self-aminoacylation: 0.527
biotinyl-Val-oxazolone
  self-aminoacylation: 0.616
biotinyl-Leu-oxazolone
  self-aminoacylation: 0.545
biotinyl-Trp-oxazolone
  self-aminoacylation: 0.719

## AAGUUUGAUACUAGUCGCAAG [Fam3.1 aminoacylation ribozyme variant]
biotinyl-Phe-oxazolone
  self-aminoacylation: 1.36
biotinyl-Ile-oxazolone
  self-aminoacylation: 1.5
biotinyl-Met-oxazolone
  self-aminoacylation: 0.811
biotinyl-Val-oxazolone
  self-aminoacylation: 1.25
biotinyl-Leu-oxazolone
  self-aminoacylation: 1.37
biotinyl-Trp-oxazolone
  self-aminoacylation: 0.887

## CCACAUUUCAAGUAAUCGGUC [Fam1B.1 aminoacylation ribozyme variant]
biotinyl-Phe-oxazolone
  self-aminoacylation: 2.1
biotinyl-Ile-oxazolone
  self-aminoacylation: 1.21
biotinyl-Met-oxazolone
  self-aminoacylation: 1.03
biotinyl-Val-oxazolone
  self-aminoacylation: 1.05
biotinyl-Leu-oxazolone
  self-aminoacylation: 1.14
biotinyl-Trp-oxazolone
  self-aminoacylation: 1.77

## CCACACUUCAAGCCAUCGGCC [Fam1B.1 aminoacylation ribozyme variant]
biotinyl-Phe-oxazolone
  self-aminoacylation: 5.27
biotinyl-Ile-oxazolone
  self-aminoacylation: 2.98
biotinyl-Met-oxazolone
  self-aminoacylation: 3.33
biotinyl-Val-oxazolone
  self-aminoacylation: 5
biotinyl-Leu-oxazolone
  self-aminoacylation: 2.85
biotinyl-Trp-oxazolone
  self-aminoacylation: 4.97

## CUCCUUCAAACAAUCGCUCUG [Fam1A.1 aminoacylation ribozyme variant]
biotinyl-Phe-oxazolone
  self-aminoacylation: 2.77
biotinyl-Ile-oxazolone
  self-aminoacylation: 0.73
biotinyl-Met-oxazolone
  self-aminoacylation: 0.531
biotinyl-Val-oxazolone
  self-aminoacylation: 0.666
biotinyl-Leu-oxazolone
  self-aminoacylation: 0.78
biotinyl-Trp-oxazolone
  self-aminoacylation: 2.01

## AAGAUUGCUAAGAGUCGCAAG [Fam3.1 aminoacylation ribozyme variant]
biotinyl-Phe-oxazolone
  self-aminoacylation: 1.73
biotinyl-Ile-oxazolone
  self-aminoacylation: 1.41
biotinyl-Met-oxazolone
  self-aminoacylation: 1.41
biotinyl-Val-oxazolone
  self-aminoacylation: 1.29
biotinyl-Leu-oxazolone
  self-aminoacylation: 1.3
biotinyl-Trp-oxazolone
  self-aminoacylation: 2.56

## AUAACCCUGGUCAUCGAGCGA [Fam2.1 aminoacylation ribozyme variant]
biotinyl-Phe-oxazolone
  self-aminoacylation: 1.91
biotinyl-Ile-oxazolone
  self-aminoacylation: 1.62
biotinyl-Met-oxazolone
  self-aminoacylation: 1.58
biotinyl-Val-oxazolone
  self-aminoacylation: 1.59
biotinyl-Leu-oxazolone
  self-aminoacylation: 2.88
biotinyl-Trp-oxazolone
  self-aminoacylation: 1.52

## AUCCACCUCGGUCAUCGGGUG [Fam2.2 aminoacylation ribozyme variant]
biotinyl-Phe-oxazolone
  self-aminoacylation: 72.4
biotinyl-Ile-oxazolone
  self-aminoacylation: 5.06
biotinyl-Met-oxazolone
  self-aminoacylation: 7.86
biotinyl-Val-oxazolone
  self-aminoacylation: 7
biotinyl-Leu-oxazolone
  self-aminoacylation: 7.66
biotinyl-Trp-oxazolone
  self-aminoacylation: 7.66

## AAGCUUGCUAAUAGUCACAAG [Fam3.1 aminoacylation ribozyme variant]
biotinyl-Phe-oxazolone
  self-aminoacylation: 4.35
biotinyl-Ile-oxazolone
  self-aminoacylation: 1.64
biotinyl-Met-oxazolone
  self-aminoacylation: 1.5
biotinyl-Val-oxazolone
  self-aminoacylation: 1.35
biotinyl-Leu-oxazolone
  self-aminoacylation: 1.65
biotinyl-Trp-oxazolone
  self-aminoacylation: 1.28

## CUACUCCAAACAAUCGGUGUG [Fam1A.1 aminoacylation ribozyme variant]
biotinyl-Phe-oxazolone
  self-aminoacylation: 1.03
biotinyl-Ile-oxazolone
  self-aminoacylation: 0.733
biotinyl-Met-oxazolone
  self-aminoacylation: 0.945
biotinyl-Val-oxazolone
  self-aminoacylation: 0.879
biotinyl-Leu-oxazolone
  self-aminoacylation: 0.964
biotinyl-Trp-oxazolone
  self-aminoacylation: 0.752

## AUUCAUCUAGGUUAUCGGGUG [Fam2.2 aminoacylation ribozyme variant]
biotinyl-Phe-oxazolone
  self-aminoacylation: 28.8
biotinyl-Ile-oxazolone
  self-aminoacylation: 2.37
biotinyl-Met-oxazolone
  self-aminoacylation: 3.02
biotinyl-Val-oxazolone
  self-aminoacylation: 2.44
biotinyl-Leu-oxazolone
  self-aminoacylation: 3.86
biotinyl-Trp-oxazolone
  self-aminoacylation: 3.36

## AUUCACAUAGGUCAUCGGGUG [Fam2.2 aminoacylation ribozyme variant]
biotinyl-Phe-oxazolone
  self-aminoacylation: 65.2
biotinyl-Ile-oxazolone
  self-aminoacylation: 5.09
biotinyl-Met-oxazolone
  self-aminoacylation: 8.47
biotinyl-Val-oxazolone
  self-aminoacylation: 5.09
biotinyl-Leu-oxazolone
  self-aminoacylation: 10.6
biotinyl-Trp-oxazolone
  self-aminoacylation: 7.83

## AAGUUAGCUUAUAGUCGCAAG [Fam3.1 aminoacylation ribozyme variant]
biotinyl-Phe-oxazolone
  self-aminoacylation: 2.88
biotinyl-Ile-oxazolone
  self-aminoacylation: 1.8
biotinyl-Met-oxazolone
  self-aminoacylation: 1.43
biotinyl-Val-oxazolone
  self-aminoacylation: 1.56
biotinyl-Leu-oxazolone
  self-aminoacylation: 1.48
biotinyl-Trp-oxazolone
  self-aminoacylation: 1.9

## ACUACCCUGGUCAUCAAGUGA [Fam2.1 aminoacylation ribozyme variant]
biotinyl-Phe-oxazolone
  self-aminoacylation: 5.04
biotinyl-Ile-oxazolone
  self-aminoacylation: 1.67
biotinyl-Met-oxazolone
  self-aminoacylation: 3.19
biotinyl-Val-oxazolone
  self-aminoacylation: 1.67
biotinyl-Leu-oxazolone
  self-aminoacylation: 2.37
biotinyl-Trp-oxazolone
  self-aminoacylation: 2.76

## GUGCUUCAAACAAUCGGUCUG [Fam1A.1 aminoacylation ribozyme variant]
biotinyl-Phe-oxazolone
  self-aminoacylation: 195
biotinyl-Ile-oxazolone
  self-aminoacylation: 2.57
biotinyl-Met-oxazolone
  self-aminoacylation: 2.69
biotinyl-Val-oxazolone
  self-aminoacylation: 2.39
biotinyl-Leu-oxazolone
  self-aminoacylation: 4.85
biotinyl-Trp-oxazolone
  self-aminoacylation: 79.6

## AUUACUCUGGUCAUUGAGUGA [Fam2.1 aminoacylation ribozyme variant]
biotinyl-Phe-oxazolone
  self-aminoacylation: 32.7
biotinyl-Ile-oxazolone
  self-aminoacylation: 4.15
biotinyl-Met-oxazolone
  self-aminoacylation: 7.88
biotinyl-Val-oxazolone
  self-aminoacylation: 3.61
biotinyl-Leu-oxazolone
  self-aminoacylation: 8.45
biotinyl-Trp-oxazolone
  self-aminoacylation: 9.3

## CCACACUUCUAGCAAUCGGUU [Fam1B.1 aminoacylation ribozyme variant]
biotinyl-Phe-oxazolone
  self-aminoacylation: 1.17
biotinyl-Ile-oxazolone
  self-aminoacylation: 1.34
biotinyl-Met-oxazolone
  self-aminoacylation: 0.978
biotinyl-Val-oxazolone
  self-aminoacylation: 1.36
biotinyl-Leu-oxazolone
  self-aminoacylation: 1.13
biotinyl-Trp-oxazolone
  self-aminoacylation: 1.12

## ACGACCCUGGUCAUCGAGUGA [Fam2.1 aminoacylation ribozyme variant]
biotinyl-Phe-oxazolone
  self-aminoacylation: 9.21
biotinyl-Ile-oxazolone
  self-aminoacylation: 3.57
biotinyl-Met-oxazolone
  self-aminoacylation: 6.93
biotinyl-Val-oxazolone
  self-aminoacylation: 3.77
biotinyl-Leu-oxazolone
  self-aminoacylation: 6.52
biotinyl-Trp-oxazolone
  self-aminoacylation: 7.11

## AUUCACCUAGGUAAUAGGGUG [Fam2.2 aminoacylation ribozyme variant]
biotinyl-Phe-oxazolone
  self-aminoacylation: 22
biotinyl-Ile-oxazolone
  self-aminoacylation: 2.7
biotinyl-Met-oxazolone
  self-aminoacylation: 4.95
biotinyl-Val-oxazolone
  self-aminoacylation: 2.43
biotinyl-Leu-oxazolone
  self-aminoacylation: 5.63
biotinyl-Trp-oxazolone
  self-aminoacylation: 4.25

## CCACACUUCAAGCAAUCUGAC [Fam1B.1 aminoacylation ribozyme variant]
biotinyl-Phe-oxazolone
  self-aminoacylation: 0.63
biotinyl-Ile-oxazolone
  self-aminoacylation: 0.493
biotinyl-Met-oxazolone
  self-aminoacylation: 0.41
biotinyl-Val-oxazolone
  self-aminoacylation: 0.549
biotinyl-Leu-oxazolone
  self-aminoacylation: 0.325
biotinyl-Trp-oxazolone
  self-aminoacylation: 0.429
